Residue numbers refer to the chain shown, from its start. Entries after “also recorded” stand apart in the source; their conditions may differ.
B1: W197E (protein)
chain: MSANDFKPETWTSSANEALRVSIVGENAVQFSPLFTYPIYGDSEKIYGYKDLIIHLAFDSVTFKPYVNVKYSAKLGDDNIVDVEKKLLSFLPKDDVIVRDEAKWVDCFAEERKTHNLSDVFEKVSEYSLNGEEFVVYKSSLVDDFARRMHRRVQIFSLLFIEAANYIDETDPSWQIYWLLNKKTKELIGFVTTYKYEHYLGAKSFDEDIDKKFRAKISQFLIFPPYQNKGHGSCLYEAIIQSWLEDKSITEITVEDPNEAFDDLRDRNDIQRLRKLGYDAVFQKHSDLSDEFLESSRKSLKLEERQFNRLVEMLLLLNNS
modifications: left off: GST (from the vector pGEX6p-1), end not stated, cleaved
B2: Hat1p: yeast Hat1p (1–320), type B histone acetyltransferase (protein)
chain: B1 chain with E197W
B3: Hat1p/Hat2p complex: yeast histone acetyltransferase complex Hat1p/Hat2p (protein)
chain 1: B1 chain with E197W
chain 2: MENQEKPLSVDEEYDLWKSNVPLMYDFVSETRLTWPSLTVQWLPTPVQELDGGFIKQELIIGTHTSGEEENYLKFAEINLPKEILSNEDPQEEAGEEYQSSLPAPRSNIRITAKYEHEEEITRARYMPQDPNIVATINGQGTVFLYSRSEGLQSTLKFHKDNGYALSFSTLVKGRLLSGSDDHTVALWEVGSGGDPTKPVRTWNDLHSDIINDNKWHNFNKDLFGTVSEDSLLKINDVRANNTTIDTVKCPQPFNTLAFSHHSSNLLAAAGMDSYVYLYDLRNMKEPLHHMSGHEDAVNNLEFSTHVDGVVVSSGSDNRLMMWDLKQIGAEQTPDDAEDGVPELIMVHAGHRSSVNDFDLNPQIPWLVASAEEENILQVWKCSHSLPIVGGPPKVNKDIIS
modifications: left off: 6xHis, N-terminal, state not stated
B4: recombinant human: recombinant human Hat1 (protein, UniProt O14929 2-419, looked up)
Histone acetyltransferase …: AGFGAMEKFLVEYKSAVEKKLAEYKCNTNTAIELKLVRFPEDLENDIRTFFPEYTHQLFGDDETAFGYKGLKILLYYIAGSLSTMFRVEYASKVDENFDCVEADDVEGKIRQIIPPGFCTNTNDFLSLLEKEVDFKPFGTLLHTYSVLSPTGGENFTFQIYKADMTCRGFREYHERLQTFLMWFIETASFIDVDDERWHYFLVFEKYNKDGATLFATVGYMTVYNYYVYPDKTRPRVSQMLILTPFQGQGHGAQLLETVHRYYTEFPTVLDITAEDPSKSYVKLRDFVLVKLCQDLPCFSREKLMQGFNEDMVIEAQQKFKINKQHARRVYEILRLLVTDMSDAEQYRSYRLDIKRRLISPYKKKQRDLAKMRKCLRPEELTNQMNQIEISMQHEQLEESFQELVEDYRRVIERLAQE
B5: Hat2p: WD40 repeat protein, binding partner of Hat1p (protein)
chain: B3 chain 2
modifications: left off: 6xHis, N-terminal, kept
B6: RbAp46: human homolog of Hat2p, retinoblastoma-binding protein (protein, UniProt Q16576 2-425, looked up)
Histone-binding protein RBBP7: ASKEMFEDTVEERVINEEYKIWKKNTPFLYDLVMTHALQWPSLTVQWLPEVTKPEGKDYALHWLVLGTHTSDEQNHLVVARVHIPNDDAQFDASHCDSDKGEFGGFGSVTGKIECEIKINHEGEVNRARYMPQNPHIIATKTPSSDVLVFDYTKHPAKPDPSGECNPDLRLRGHQKEGYGLSWNSNLSGHLLSASDDHTVCLWDINAGPKEGKIVDAKAIFTGHSAVVEDVAWHLLHESLFGSVADDQKLMIWDTRSNTTSKPSHLVDAHTAEVNCLSFNPYSEFILATGSADKTVALWDLRNLKLKLHTFESHKDEIFQVHWSPHNETILASSGTDRRLNVWDLSKIGEEQSAEDAEDGPPELLFIHGGHTAKISDFSWNPNEPWVICSVSEDNIMQIWQMAENIYNDEESDVTTSELEGQGS

Tests used:
[1] = tested on: hat1Δ yeast; assay: DNA damage sensitivity assay; type: cell-based; conditions: synthetic medium in the absence or presence of methyl methane sulfonate (MMS); H3K9,14R allele as sole H3; Supplemental Fig. S4
[2] = tested on: histone H4 (H4K5, H4K12); conditions: cited from earlier work; for acetylation site specificity on H4 (literature): in vitro, complex purified from yeast extracts or recombinant yeast Hat1p; for acetylation site specificity on H4 (literature) / enhancement of enzymatic activity of Hat1p: ref Parthun et al. 1996; for enhancement of enzymatic activity of Hat1p: by facilitating H4 association with Hat1p
[3] = tested on: histone H4 in nucleosomes; conditions: ref Kleff et al. 1995; Parthun et al. 1996; cited from earlier work
[4] = tested on: histone H4 (H4K5, H4K12); conditions: no ref printed in the sentence; cited from earlier work

Molecule | acetylation site specificity on H4 (literature) [2] | enhancement of enzymatic activity of Hat1p [2] | other results
B1 |  |  | complementation of DNA damage sensitivity in hat1Δ yeast [1]: able to complement the DNA damage sensitivity in the hat1Δ yeast
B2 | not only able to acetylate H4K12 but also exhibited low activity to H4K5; also recorded: acetylated both H4K5 and H4K12 in vitro |  | acetylation of H4K5 and H4K12 (recombinant yeast Hat1, literature) ([2]; recombinant yeast Hat1, no ref printed in the sentence): can acetylate both H4K5 and H4K12; acetylation of histone H4 in nucleosomes [3]: cannot acetylate histone H4 in nucleosomes
B3 | specifically acetylated H4K12 residue; also recorded: highly specific for H4K12 |  | 
B4 |  |  | acetylation of H4K5 and H4K12 (recombinant human Hat1, literature) [4]: can acetylate both H4K5 and H4K12
B5 |  | significantly enhanced the enzymatic activity of Hat1p | 
B6 |  | significantly enhanced the enzymatic activity of Hat1p | 

Source: paper PMC4052767 (Genes & Development, 2014)
